Experimental data as given in PMC4997581.

Key:
Assay in all cases: co-IP
[1] = biological target: Cyclin H (human (endogenous in 293T and HFF)) (UniProt P51946)
[2] = biological target: Cyclin T1 (human (endogenous in 293T and HFF)) (UniProt O60563)
[3] = biological target: Cyclin B1 (human (endogenous in 293T and HFF)) (UniProt P14635)
Chain of Cyclin B1 (human (endogenous in 293T and HFF)) (P14635 whole entry): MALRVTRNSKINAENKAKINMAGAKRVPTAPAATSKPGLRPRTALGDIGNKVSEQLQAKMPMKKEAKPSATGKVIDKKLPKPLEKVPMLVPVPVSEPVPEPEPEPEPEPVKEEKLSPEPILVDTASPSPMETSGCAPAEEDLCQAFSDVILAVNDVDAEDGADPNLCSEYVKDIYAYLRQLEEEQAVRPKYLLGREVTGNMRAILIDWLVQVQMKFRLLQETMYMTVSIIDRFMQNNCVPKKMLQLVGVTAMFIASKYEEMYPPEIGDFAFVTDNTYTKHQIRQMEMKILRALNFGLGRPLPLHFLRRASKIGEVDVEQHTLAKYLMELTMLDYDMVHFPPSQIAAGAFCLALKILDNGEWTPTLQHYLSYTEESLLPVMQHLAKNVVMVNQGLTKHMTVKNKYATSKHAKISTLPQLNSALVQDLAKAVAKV

Chain of Cyclin T1 (human (endogenous in 293T and HFF)) (O60563 whole entry): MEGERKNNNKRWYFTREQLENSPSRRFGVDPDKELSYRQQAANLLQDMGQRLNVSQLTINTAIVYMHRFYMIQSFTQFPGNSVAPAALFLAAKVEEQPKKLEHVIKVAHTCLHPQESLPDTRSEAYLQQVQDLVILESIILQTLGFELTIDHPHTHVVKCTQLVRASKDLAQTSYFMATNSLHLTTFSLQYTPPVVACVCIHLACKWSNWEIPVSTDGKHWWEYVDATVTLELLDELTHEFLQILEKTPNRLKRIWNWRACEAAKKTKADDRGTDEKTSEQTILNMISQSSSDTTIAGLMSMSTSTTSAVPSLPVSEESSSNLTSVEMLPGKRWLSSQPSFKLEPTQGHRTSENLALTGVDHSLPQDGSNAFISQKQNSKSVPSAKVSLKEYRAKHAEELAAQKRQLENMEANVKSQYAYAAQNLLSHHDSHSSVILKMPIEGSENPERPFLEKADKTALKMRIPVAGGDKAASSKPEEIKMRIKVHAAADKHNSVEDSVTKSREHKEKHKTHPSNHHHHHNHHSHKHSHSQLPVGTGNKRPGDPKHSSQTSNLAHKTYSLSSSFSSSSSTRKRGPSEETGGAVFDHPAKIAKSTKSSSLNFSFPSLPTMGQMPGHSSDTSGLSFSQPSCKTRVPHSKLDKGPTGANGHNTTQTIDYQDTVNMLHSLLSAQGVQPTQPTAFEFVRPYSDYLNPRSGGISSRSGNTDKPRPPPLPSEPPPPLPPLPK
Chain of Cyclin H (human (endogenous in 293T and HFF)) (P51946 whole entry): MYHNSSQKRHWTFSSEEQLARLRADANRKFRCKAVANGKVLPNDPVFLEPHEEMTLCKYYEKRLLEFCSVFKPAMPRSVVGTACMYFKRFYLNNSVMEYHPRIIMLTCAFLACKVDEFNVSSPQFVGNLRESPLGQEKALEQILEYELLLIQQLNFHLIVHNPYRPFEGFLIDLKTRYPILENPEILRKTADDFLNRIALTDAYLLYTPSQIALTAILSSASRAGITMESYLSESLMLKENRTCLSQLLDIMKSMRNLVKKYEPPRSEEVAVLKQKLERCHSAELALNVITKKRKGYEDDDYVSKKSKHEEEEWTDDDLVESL

HCMV protein kinase pUL97, Flag-tagged (pUL97-Flag) (from UniProt P16788 1-707) (natural protein)
pUL97 co-IP Western blot signal relative to cyclin B1 [1]: 4% | pUL97 co-IP Western blot signal relative to cyclin B1 [2]: 9%

Protein kinase pUL97 of HCMV AD169, in infected cells (natural protein)
pUL97 co-IP Western blot signal relative to cyclin B1 [1]: 160% | pUL97 co-IP Western blot signal relative to cyclin B1 [2]: 77% | pUL97 co-IP Western blot signal relative to cyclin B1 [3]: 100%

pUL97 stably expressed in transduced HFFs (from UniProt P16788 1-707) (natural protein)
pUL97 co-IP Western blot signal relative to cyclin B1 [2]: 42%
